This data set in a line: label from the status in PepcDB records.

Among the data in a protein production outcome set (Wang et al. 2014) are protein production values, retold here.

“MTIRAGSLDRRTLLRGAIATAAMGSFAVACSSPSSEDKESDSGPKGEKSANNPFGAAANSTVEAAIFDGGYGTDYVDYANQVLGSQVKGLKVQVKPVVDIAPQLQPRFVGGNPPDLIDNSGEDQIGFLGILDQLEELDDLFEASTYEGKKIADIVYPGVKDPGTFKDKFVALNYVMTVYGVWYSKTLFEENGWTPPKTWDEALDLGQEAKKKGKYLFVHGKEAATYYRTLLIDSAIKEGGDEVRLALENLEKGCWSHPAVQGVIKVMETMVKQKMFVPGGSGTQFQKAQAIWSNDQKALLYPSGGWIENEMKKATKADFQMTGIPSMTLTDKPALPYEALRAAAGEPFIVPKQGKNPAGGKEVLRAMLSEKAAANFSKTKLAPTIVKGTVPADGYGSTALVSQTKMLEAAGTNIFNYMFVETYGLNTDQLVPWNSFLAGDLDGKGLTSALQKISDKVREDDSVDKVKVS”: the protein production result is given as “failed”.
To “MTIRMIPHPIFSSPTKRRREKPDPPARAGAAQPSGPARMTPQQQTEWQQRLIALLESQPPDDDGAHDLSHLHRVWAVARTLLAHYPDADSIVVMAGSYLHDLVNLPKNHPQRQLASHWSAERARQLLADSGLTEAQLDNLAHAIEAHSYSAAIPPRTLEARIVQDADRMDALGPVGLARMFYVSGRMGRALAHPLDPLAEHRGRDDQAWAIDHIDVKLAKLPGMMQTEAGRAMAERKLEWLFHFRDEFCRDWMARLEHHHHHH” belongs “not failed”; to “MTISEVSKKYELSADTLRYYERIGLIPPVNRNKSGIRSFTEEDCEWVNFIKCMRGAGLSIETLIEYVAMFQQGSSTIKARKELLIEQRNQLAKRIEEMQKTLERLNFKIDRYEEGIIEKEKVLKSSRNKKMEAVS”, “failed”; to “MTISEVSKKYELSADTLRYYERIGLIPPVNRNKSGIRSFTEEDCEWVNFIKCMRGAGLSIETLIEYVAMFQQGSSTIKARKELLIEQRNQLAKRIEEMQKTLERLNFKIDRYEEGIIEKEKVLKSSRNKKMEAVSYE”, “not failed”.
Consider “MTITPQQLIALLPLLIVGLTVVVVMLSIAWRRNHFLNATLSVLGLNAALVSLWFVGQNGAMDVTPLIRVDGYAMLYTGLVLLASLATCTFAYPWLEGYKDNKEEFYLLVLIAALGGILLAGANHLAALFLGIELISLPLFGLVGYAFRQKRSLEASIKYTILSAAASSFLLFGMALVYANSGNLSFLALGKSLADNMLHEPLLLAGLGLMIVGLGFKLSLVPFHLWTPDVYQGAPAPVSTFLATASKIAIFGVVMRLFLYMPVGNSEAVRVVLGLIAFASIIFGNLMALSQTNIKRLLGYSSISHLGYLLVALIALQSGEMSMEAVGVYLAGYLFSSLGAFGVVSLMSSPYRGPDADSLFSYRGLFWHRPILSAVMTVMMLSLAGIPMTLGFIGKFYVLAVGVHAHLWWLVAAVVVGSAIGLYYYLRVAVSLYLSAPEQLNRDAPSNWQYSAGGIVVLISALLVLVLGIWPQPLISIVQLATPLM”, for which the protein production result is “failed”.
Take “MTITSFGPANRIARTAETHPLTWRLRDDGEPVWLDEYQTKDGYAAARKALTQQAPDDIVQSVKDSGLKGRGGAGFPTGVKWGLMPKDESMNIRYLLCNADEMEPNTWKDRMLMEQLPHLLIEGMLISARALKAYRGYIFLRGEYVTAAKHLNRAVAEAKAAGLLGKNILGTGFDFELFVHTGAGRYICGEETALINSLEGRRANPRSKPPFPAAVGVWGKPTCVNNVETLCNVPAIVNNGNDWYKSLAREGSEDHGTKLMGFSGKVKNPGLWELPFGVQARELFEDYAGGMRDGFTLKCWQPGGAGTGFLLPEHLDAQMYAGGIAKVGTRMGTGLAMAVDDSVNMVSLLRNMEEFFAQESCGFCTPCRDGLPWSVKILRAIENGHGQPGDIETLLGLVNFLGPGKTFCAHAPGAVEPLGSAIKYFRSEFEAGIAPASAAMLVPGKSPTVVGALEHHHHHH”: the protein production entry is “failed”.
To “MTIYSPDTINFNGVSGDRYWFDEPFPYTGVADIDERLSGFPVAVFLPHHRPRQETPLVIGLQGMCAPYGWNAFIVPILIEMGIAVALFDPPLSGERSLVRTSTTLVQNEIKPLIDRGIPFDTALFLSIFRTTARDIGKIREFCGDRYGLTDSRLALFGVSMGVLLSAYAFTANSLGDRLLGTIGHADLPSFAKSWGRPFLPDLAASPLGGLAESLLQRLQPDLAPLFNLLRLTKNLKYQDEYAWDCNPMNYIQQVESHRRVRFLIGANDSIVKIKDARACAQKFPDGDCYIVPGMGHGTRQSGVSFVDHVRYFLATQLGDWRG” belongs “failed”; to “MTKACEANKSFLQSAVDKKEYSRTLLVDDGSDEGARSAGAFRPTPHRKGHGGRSPRRDQSPRRDSPQTASRTRLSSELIADLLQKKRERPTRSSSFPKRDKTIARTDRSPRSSPLPRSMGPPPPVIASPSSRSWGERPVGVQILTRRV”, “failed”; to “MTKAIQSSVQVGELATGQALTVPIYSFMGSENSAPSVYIQANVHGAEVQGNAVIYQLMTLLEGYQVLGDITLAPLANPLGINQKSGEFTLGRFDPITGVNWNREYFDHNVDIQNWYAEHQHLTNSELFCAYRSMLVETCQARLTHSFGISTGHRLAVNLQAMAHQADIVLDLHTGPKSCKHLYCPEYDIDAARFFSIPYTLIIPNSFGGAMDEATFCPWWQLTEYATSQGREFSVPVSAFTLELASQERIDLADALEDAKGILAYLSHRGVIAEKVNPASMERFGCYLKDYKKFHAPKAGLIEYCASVGEPLTAGKPLVNILRIDLYGSEQAYQAISLPMDCVPILHFASASVLQGTELYKVMTNVFPLQPS”, “not failed”.
The value for “MTKDRQIKKTKTAIYSAFIALLQKKEYSKITVRDMITLANVGRSTFYAHYESKEMLLKELCEELFHHLFRQKRNVTFEDYLVHILKHFEQNKDSIATLLLSNDPYFLLRFKNELEHDVYPNLRCKYIDKTTIPEVFLKQFVLSSFIETLKWWLHQRQRMSANELLKYYLELIK” was “failed”.
To “MTKEPRNLSEWIKELKKASREAVILVEGKNDKKALSKFSIKNVIDLSGKRYADVVDMLEGKWEKVILLFDLDTHGERINQKMKELLSSQGFLVDENFRNFLKKWNIIHIEEINGGKNS” belongs “not failed”; to “MTKGISALSNIATLRSRELGPETFIPYVRHVDETTIALESRALMTMIALDGVSFETSDVRDLNGLHRSLNTLYRNIADERLALWTHVVRRRDNAYPEGRFANPFSDGLNARYRERMVNENLFRNDLYLTLVWHPGRDPAEKAAKLLSRLSKARRSDTELDGQALKHLRDHVADVAAGLQRFGPRQLTLHEHDGILFSEPSEVLHQIVGGRREPIPLTEGRISSAIYSDRVIFGRETIEIRHEADSRYAGMFGFKEYPATTRSGMLDAILTAPFELILTQSFAFTSKADARTIMGRKQNQMVSAGDKAASQIEELGEAMDDLESNRFVLGEHHLTLAVFAPSVKELTDHMAKARAYLTSGGAVVAREDLGLEAAWWAQLPGNFRYRARSGAITSRNFAALAPYHSYPAGKKDGNEWGPAVAMLKTASGSPFYFNFHHGDLGNSFVCGPSGTGKTVLLNFMLSQLEKHGPHMVFFDKDRGADLFVRAAGGTYLPLKNGVATGCAPLKALEFTAENKVFLTGWIAKLVRSGPGELSITELRDIALAVDGVADLPVERRSIGALRTFLNNTDPEGIAARLRRWEKGGPLGWVFDNEADDIGIGARFIGYDMTDFLDNEEIRTPLMAYLFYRIEQLIDGRRIIIVIDEFWKALQDEGFRDLAQNKLKTIRKQNGLMLFATQSPRDAIVSPIAHTIIEQCPTQIFLPNPRGDRADYVDGFKLTEREFELVSRELSVESRRFIVKQGHNSVVAELNLNGFDDELAILSGRTANVELADAIRLEIGEGREDWLAVFHQRRKTA”, “failed”.
As for “MTKGSLSGLPRENIELPDGSVLRRRSLVSDDAFIDAVTADVGHLGEWLRWARHPPTREETERFRAEQDADWDAGRSFVYVLTPPDRHDQVLGGGAMFPNGEVGVLEIGYWVCSPATGRGLATRAAAALTEEGLGLPGVKAMEIHCDRANARSAAIPPRIGYRLLRIEADEPQTVAEAGRSMVWRHDGA”, the protein production result was “failed”.
To “MTKIAILGANGRLGRVVAKAFIDAGFDVRTVTRTGKVPAELDGATAVAGDALDRQSLISATEGVDIIFNGLNPIYTDWGKCLPMAENVMAACHANNALHLFPGTVYNYGSPMPAVITEDTPFHPTTEKGRIRCAMEELFRREADAGRVRTILLRAGDFFGGTGSGSWFDLVVAAKMSKGVYTAPGPVDLVHEWAYLPDFAVGFVALARNLDRLGSYEALNFPGHAVTDLEIKAAAEKALGRPLKMTSMPWWVLRAGSPFVAMWREIVSMSYLRFEPHQLASTRLEGIIGEIPHTPLDQAVAQALEDIGIATVKGMKAA” belongs “failed”; to “MTKISKAACIGGGVIGGGWIARFLLAGIDVDVFDPHPEAGRIVGEIIANAEKAYAMLTGAPLPPRGKLTFCETLAEAVADADWIQESVPERLDLKRGVLTEIDAAARPEALIGSSTSGLLPTDLQRNMTHPERLFVAHPYNPVYLLPLVEIVGGEKTSAGTIRAAIERLAPIGMKGVHIAKEIEAFVGDRLLEALWREALWLIHDDICTVETLDDVIRYSFGLRWAQMGLFQTYRIAGGEAGMRHFLAQFGPCLAWPWTKLTDVVDLDDALIEKIGRQSDEQAAGLSIRALERIRDENLVGILQALKGGDNGKGWGAGKLLKDFEQTLWARGGDAAASADPSKPLRLVETKVSPAWVDYNGHMTEHRYLQVFGDTSDALLRLIGVDLAYVEAGHSYYTVESHIRHLGEAKLGQAIHSACQILTADEKRLHVFHTLRDTATGAVIATAEQMLLHVDSKEGKAVAAPAAVLDRVKAIAAAHAELALPEGAGRHVGQRR”, “failed”; to “MTKITLSPQNFRIQKQETTLLKEKSTEKNSLAKSILAVKNHFIELRSKLSERFISHKNTESSATHFHRGSASEGRAVLTNKVVKDFMLQTLNDIDIRGSASKDPAYASQTREAILSAVYSKNKDQCCNLLISKGINIAPFLQEIGEAAKNVGLPGTTKNDVFTPSGAGANPFITPLISSANSKYPRMFINQHQQASFKIYAEKIIMTEVAPLFNECAMPTPQQFQLILENIANKYIQYTP”, “failed”.
The value for “MTKKAILLSFLGGFLSLSLEVIWIRLLGFQTFSLPQAFSFTLALFLLGIAFSSFIGKKVCQQGDASINYIGRIFFIAALFDCLAIGLISTTSNSFTNLVYSIFSIFCCALLRGIVFPIVHHLGSEHKKTGAAISNVYFANVLGCTIAPIFIGFYLLDQFTTQQTYLIVISITLIIACFCLTKRVFKAINALFAISVVFATALLPEKMISTLANEEDMQLETLIENKHGIIQVYLDKNQDHLVYGSNVYDGQLNVNLNHNSNGIHRAYLLPAHRK” was “failed”.
“MTKLPATSDIYISFFMFTTNLQPDNLDYRRIVVAHIKKLQRFGYSGFEFPIAPGLPENYAQDLENYTNLRHYLDSEGLENVKISTNVGATRTFDPSSNYPEQRQEALEYLKSRVDITAALGGEIMMGPIVIPYGVFPTTDFNEPIWSDELQEHLKVRYANAQPILDKLGEYAEIKKVKLAIEPITHWETPGPNKLSQLIEFLKGVKSKQVGVVIDSAHEILDGEGPEIFKTQVEYLAQQGRLHYVQVSPPDRGALHTSWLPWKSFLTPIVKVYDGPIAVEIFNAIPAFTNSLRLTRRKFWIPDEDPPNQYPNAYDIADEAIKVTRKELKKIGSK”: the protein production entry is reported as “not failed”.
The value for “MTKMLKLFDAHFHIIDYRFPLITNQSYLPPEFTVEDYLQRAKPLNICGGAVVSGSFQAFDQSYLLAALSILGSDFVGVTQLPATVSDEEIIQLNQKGIRAVRFNVKRGGSENIHRLKYFAHRIYEMVRWHVEIYVDSKDLGDLTSLLLELPAVSIDHLGLSHSGFSQLLHLVEHGIKIKASGFGRVDFDVKKALQTIAQINPDALLFGTDLPSTRAPRPFLDSDIQIIQDLFDEKLTEKILYRNARNFYSKNSSELEHHHHHH” was “not failed”; that for “MTKNKKGKNKEVINNYEEEEDYNIIDHDENAEVDVIPEPDFNSNMVYLNIYDLDSVSKVVNTVARSVGAGAFHAGVEVYGYEYSFGYIMDGETGVTKTNARVMIQKNNEILKNIKTYRIHVNIYIYIFLLVFSKTPLTKEEVDLLVEVMKLQWIGDTYDILSRNCLNYADYFCNLLDVGGIPEWVMSLQKKVTWVKSNINIAASKLKELNKAAGIPNVINYLKKKYEDSNSSDDYKGCKVVVK” was “failed”.
